# Measurements from patent US20240116985A1, “STAPLED PEPTIDES AND METHODS THEREOF” (priority 2020, published 2024).
# Molecular target: full-length beta-Catenin (Uniprot ID P35222) (Homo sapiens (Human)) (UniProt P35222)
# Assay: fluorescence polarization competition; full-length beta-catenin, 5FAM-TCF4(10-53) probe as competitor
# Target sequence in this assay (P35222 2-781 limits assumed): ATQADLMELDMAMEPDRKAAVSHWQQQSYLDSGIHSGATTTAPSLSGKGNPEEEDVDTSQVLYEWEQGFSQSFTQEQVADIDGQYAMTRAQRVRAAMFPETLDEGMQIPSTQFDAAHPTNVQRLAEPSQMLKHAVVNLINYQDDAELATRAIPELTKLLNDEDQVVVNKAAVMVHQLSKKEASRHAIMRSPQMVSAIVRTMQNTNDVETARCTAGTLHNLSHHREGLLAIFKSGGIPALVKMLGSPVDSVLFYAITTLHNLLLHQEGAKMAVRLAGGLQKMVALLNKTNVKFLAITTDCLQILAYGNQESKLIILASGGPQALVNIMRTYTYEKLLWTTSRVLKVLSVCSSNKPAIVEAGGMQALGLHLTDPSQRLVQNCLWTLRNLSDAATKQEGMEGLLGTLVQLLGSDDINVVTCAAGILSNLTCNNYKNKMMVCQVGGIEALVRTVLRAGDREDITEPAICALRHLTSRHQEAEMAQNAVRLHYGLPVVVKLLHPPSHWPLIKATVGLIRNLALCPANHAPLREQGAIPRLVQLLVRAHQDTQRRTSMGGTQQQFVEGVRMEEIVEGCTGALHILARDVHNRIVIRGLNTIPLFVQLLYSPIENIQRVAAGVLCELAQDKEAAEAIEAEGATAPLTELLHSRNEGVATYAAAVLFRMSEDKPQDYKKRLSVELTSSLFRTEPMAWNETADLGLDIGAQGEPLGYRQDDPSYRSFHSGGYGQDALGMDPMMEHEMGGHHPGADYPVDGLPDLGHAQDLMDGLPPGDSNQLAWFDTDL
row,IC50 [nM],Substance
1,6290,Ac-PL3-Asp-Npg-B5-Asp-3COOHF-Ala-Ala-Phe-Leu-PyrS2-2F3MeF-2F3MeW-Gln-NH2 (peptide)
2,5,Ac-PL3-Asp-Npg-B5-Asp-[CH2CCpCO2H]TriAzDap-Ala-Ala-Phe-Leu-PyrS2-3Thi-BztA-Gln-NH2 (peptide)
3,5,Ac-PL3-Asp-Npg-B5-Asp-[CH2CChCO2H]TriAzDap-Ala-Ala-Phe-Leu-PyrS2-3Thi-BztA-Gln-NH2 (peptide)
4,79,Ac-PL3-Asp-Npg-B5-Asp-3COOHF-Ala-Ala-Phe-Leu-PyrS2-2F3MeF-SbMe2NapA-Gln-NH2 (peptide)

# Molecular target: full-length beta-Catenin (Uniprot ID P35222) (Homo sapiens (Human)) (UniProt P35222)
# Assay: fluorescence polarization competition; full-length beta-catenin, 5FAM-TCF4(10-53) probe displaced
# Target sequence in this assay (P35222 whole entry): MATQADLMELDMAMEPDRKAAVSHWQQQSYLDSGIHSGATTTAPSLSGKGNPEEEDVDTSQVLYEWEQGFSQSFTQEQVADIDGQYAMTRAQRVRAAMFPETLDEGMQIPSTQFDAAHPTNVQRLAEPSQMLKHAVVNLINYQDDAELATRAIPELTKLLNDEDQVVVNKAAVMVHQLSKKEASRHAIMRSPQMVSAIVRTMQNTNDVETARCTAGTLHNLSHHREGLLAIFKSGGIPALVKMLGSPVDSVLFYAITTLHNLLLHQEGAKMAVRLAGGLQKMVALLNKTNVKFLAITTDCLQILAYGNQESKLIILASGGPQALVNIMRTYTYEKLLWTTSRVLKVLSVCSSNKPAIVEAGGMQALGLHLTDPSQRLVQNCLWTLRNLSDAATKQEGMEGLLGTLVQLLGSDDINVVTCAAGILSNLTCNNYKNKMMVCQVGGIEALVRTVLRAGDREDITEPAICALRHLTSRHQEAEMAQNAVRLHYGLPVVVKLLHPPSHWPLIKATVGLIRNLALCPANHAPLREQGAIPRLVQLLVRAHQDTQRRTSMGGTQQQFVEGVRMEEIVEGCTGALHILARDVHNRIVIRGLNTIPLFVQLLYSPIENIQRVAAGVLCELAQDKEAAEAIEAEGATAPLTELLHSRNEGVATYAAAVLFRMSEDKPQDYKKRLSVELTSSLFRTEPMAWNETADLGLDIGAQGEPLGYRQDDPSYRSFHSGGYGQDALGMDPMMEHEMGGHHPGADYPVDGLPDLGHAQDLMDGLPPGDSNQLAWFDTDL
row,Substance,IC50 [nM]
1,Ac-PL3-Asp-Npg-B5-Asp-Asp-Ala-Ala-Phe-Leu-PyrS2-4CNF-BztA-Gln-NH2 (peptide),987
2,Ac-PL3-Asp-Npg-B5-Asp-Asp-Ala-Ala-Phe-Leu-PyrS2-2CNF-BztA-Gln-NH2 (peptide),16
3,MeSO2-PL3-Asp-Npg-B5-Asp-TfeGA-Ala-Ala-Phe-Asn-PyrS2-3Thi-BztA-Gln-NH2 (peptide),7

# Next, values leading:
row,IC50 [nM],Substance
1,81,Ac-PL3-Asp-Npg-B5-Asp-Asp-Ala-Ala-Phe-Leu-PyrS2-3CNF-BztA-Gln-NH2 (peptide)
2,10,MeSO2-PL3-Asp-Npg-B5-Asp-Asp-Ala-Ala-Phe-Asn-PyrS2-3Thi-BztA-Gln-NH2 (peptide)

# Molecular target: full-length beta-Catenin (Uniprot ID P35222) (Homo sapiens (Human)) (UniProt P35222)
# Assay: fluorescence polarization competition; displacement of 5FAM-TCF4(10-53) from full-length beta-catenin
# Target sequence in this assay (P35222 whole entry): as above
row,IC50 [nM],Substance
1,10,I-1519: Ac-PL3-Asp-Cha-B5-Asp-Asp-Ala-Ala-Phe-Leu-PyrS2-3Thi-BztA-Gln-NH2 (peptide)
